These results are taken from US20170360949A1 (TIANJIN INSTITUTE OF INDUSTRIAL BIOTECHNOLOGY CHINESE …, published 2017).

The target of assay [1] is T1, Z1Z2 (two Ig domains at the N terminus of the titin molecule) (human).
T1 construct: also called polypeptide A
T1 chain: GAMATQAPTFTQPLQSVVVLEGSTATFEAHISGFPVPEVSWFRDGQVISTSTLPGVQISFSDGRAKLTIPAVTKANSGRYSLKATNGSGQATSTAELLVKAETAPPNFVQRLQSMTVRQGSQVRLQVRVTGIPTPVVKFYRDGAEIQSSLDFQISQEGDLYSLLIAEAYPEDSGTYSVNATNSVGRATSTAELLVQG
Kind of assay: complex formation by mixing in urea and dialysis, then co-purification.

For assay [2], the target named is T1, Z1Z2 (two Ig domains at the N terminus …). Kind of assay: SDS-PAGE and Native-PAGE of the purified complex.
The target in assay [3] is T2, ZSST (human).
T2 construct: Two ZSST chains stand in the ZSST/TeN complex; End residue 237 from claim 18; also called SST inserted into a loop of the Z1Z2 molecule
T2 chain: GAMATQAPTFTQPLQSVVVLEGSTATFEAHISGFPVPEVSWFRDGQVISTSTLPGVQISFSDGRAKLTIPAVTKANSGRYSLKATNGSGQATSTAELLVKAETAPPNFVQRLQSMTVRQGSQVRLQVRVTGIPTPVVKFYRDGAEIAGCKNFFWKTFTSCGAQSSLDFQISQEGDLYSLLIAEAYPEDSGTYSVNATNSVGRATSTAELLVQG
The experiment in a line: SDS-PAGE and Native-PAGE of the purified complex.

For assay [4], the target named is T3, GLZ (human).
T3 construct: Two GLZ chains stand in the GLZ/TeN complex; End residue 260 from claim 16; also called GLP-1(8G) attached to the N terminus of Z1Z2
T3 chain: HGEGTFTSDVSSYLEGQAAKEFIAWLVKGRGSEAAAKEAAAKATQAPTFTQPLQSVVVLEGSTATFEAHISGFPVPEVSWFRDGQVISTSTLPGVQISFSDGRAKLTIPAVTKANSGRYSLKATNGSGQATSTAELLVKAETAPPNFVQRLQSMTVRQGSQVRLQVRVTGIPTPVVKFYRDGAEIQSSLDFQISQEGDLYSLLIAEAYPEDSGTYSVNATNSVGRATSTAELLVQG
The experiment in a line: SDS-PAGE and Native-PAGE of the purified complex.

B1: GLTe (other)
chain: HAEGTFTSDVSSYLEGQAAKEFIAWLVKGRGGGGGSGGGGSGGGGSAMATSELSSEVSEENSERREAFWAEWKDLTLSTRPEEGSSLHEEDTQRHETYHQQGQSQVLVQRSPWLMMRMGILGRGLQEYQLPYQRVLP
notes: TEV site printed as between positions 25 and 26, in conflict with GLP-1 at 25-55; claim 15 gives 25-161; also called GLP-1 (7-37) attached via (GGGGS)3 to the N terminus of TeN
As to B1, the binding result in assay [1] is reported as “binds”.

B2: SSTe (other)
chain: GAMATSELSSEVSEENSEAGCKNFFWKTFTSCGGRREAFWAEWKDLTLSTRPEEGSSLHEEDTQRHETYHQQGQSQVLVQRSPWLMMRMGILGRGLQEYQLPYQRVLP
notes: claim 17 gives 25-132; also called SST inserted into the Loop (LT1) of a TeN mutant
As for B2, the binding result in assay [2] is “binds”.

B3: TeN (N terminus of Telethonin, Cys mutated to Ser) (other)
chain: GAMATSELSSEVSEENSERREAFWAEWKDLTLSTRPEEGSSLHEEDTQRHETYHQQGQSQVLVQRSPWLMMRMGILGRGLQEYQLPYQRVLP
notes: also called polypeptide B
For B3, the binding result in assay [3] and in assay [4] was “binds” in each case.
